# B1: Myosin-binding protein C, slow-type (Homo sapiens), Q00872-4 (parent)
# chain: MPEPTKKEENEVPAPAPPPEEPSKEKEAGTTPAKDEEEVSPPSALPPGLGSRALERKDSDWTLVETPPGEEQAKQNANSQLSILFIEKPQGGTVKVGEDITFIAKVKAEDLLRKPTIKWFKGKWMDLASKAGKHLQLKETFERHSRVYTFEMQIIKAKDNFAGNYRCEVTYKDKFDSCSFDLEVHESTGTTPNIDIRSAFKRSGEGQEDAGELDFSGLLKRREVKQQEEEPQVDVWELLKNAKPSEYEKIAFQYGITDLRGMLKRLKRMRREEKKSAAFAKILDPAYQVDKGGRVRFVVELADPKLEVKWYKNGQEIRPSTKYIFEHKGCQRILFINNCQMTDDSEYYVTAGDEKCSTELFVREPPIMVTKQLEDTTAYCGERVELECEVSEDDANVKWFKNGEEIIPGPKSRYRIRVEGKKHILIIEGATKADAAEYSVMTTGGQSSAKLSVDLKPLKILTPLTDQTVNLGKEICLKCEISENIPGKWTKNGLPVQESDRLKVVHKGRIHKLVIANALTEDEGDYVFAPDAYNVTLPAKVHVIDPPKIILDGLDADNTVTVIAGNKLRLEIPISGEPPPKAMWSRGDKAIMEGSGRIRTESYPDSSTLVIDIAERDDSGVYHINLKNEAGEAHASIKVKVVDFPDPPVAPTVTEVGDDWCIMNWEPPAYDGGSPILGYFIERKKKQSSRWMRLNFDLCKETTFEPKKMIEGVAYEVRIFAVNAIGISKPSMPSRPFVPLAVTSPPTLLTVDSVTDTTVTMRWRPPDHIGAAGLDGYVLEYCFEGTEDWIVANKDLIDKTKFTITGLPTDAKIFVRVKAVNAAGASEPKYYSQPILVKEIIEPPKIRIPRHLKQTYIRRVGEAVNLVIPFQGKPRPELTWKKDGAEIDKNQINIRNSETDTIIFIRKAERSHSGKYDLQVKVDKFVETASIDIQIIDRPGPPQIVKIEDVWGENVALTWTPPKDDGNAAITGYTIQKADKKSMEWFTVIEHYHRTSATITELVIGNEYYFRVFSENMCGLSEDATMTKESAVIARDGKIYKNPVYEDFDFSEAPMFTQPLVNTYAIAGYNATLNCSVRGNPKPKITWMKNKVAIVDDPRYRMFSNQGVCTLEIRKPSPYDGGTYCCKAVNDLGTVEIECKLEVKVIYQGVNTPGQPVFLEGQQQSLHNKDF
# What was measured:
# [1] = variants of: B1; conditions: with acts_rabit ACTA1, P68135
# [2] = variants of: B1; conditions: with myh11_rabit MYH11, P35748
# myh11_rabit MYH11, P35748, sequence (P35748 whole entry): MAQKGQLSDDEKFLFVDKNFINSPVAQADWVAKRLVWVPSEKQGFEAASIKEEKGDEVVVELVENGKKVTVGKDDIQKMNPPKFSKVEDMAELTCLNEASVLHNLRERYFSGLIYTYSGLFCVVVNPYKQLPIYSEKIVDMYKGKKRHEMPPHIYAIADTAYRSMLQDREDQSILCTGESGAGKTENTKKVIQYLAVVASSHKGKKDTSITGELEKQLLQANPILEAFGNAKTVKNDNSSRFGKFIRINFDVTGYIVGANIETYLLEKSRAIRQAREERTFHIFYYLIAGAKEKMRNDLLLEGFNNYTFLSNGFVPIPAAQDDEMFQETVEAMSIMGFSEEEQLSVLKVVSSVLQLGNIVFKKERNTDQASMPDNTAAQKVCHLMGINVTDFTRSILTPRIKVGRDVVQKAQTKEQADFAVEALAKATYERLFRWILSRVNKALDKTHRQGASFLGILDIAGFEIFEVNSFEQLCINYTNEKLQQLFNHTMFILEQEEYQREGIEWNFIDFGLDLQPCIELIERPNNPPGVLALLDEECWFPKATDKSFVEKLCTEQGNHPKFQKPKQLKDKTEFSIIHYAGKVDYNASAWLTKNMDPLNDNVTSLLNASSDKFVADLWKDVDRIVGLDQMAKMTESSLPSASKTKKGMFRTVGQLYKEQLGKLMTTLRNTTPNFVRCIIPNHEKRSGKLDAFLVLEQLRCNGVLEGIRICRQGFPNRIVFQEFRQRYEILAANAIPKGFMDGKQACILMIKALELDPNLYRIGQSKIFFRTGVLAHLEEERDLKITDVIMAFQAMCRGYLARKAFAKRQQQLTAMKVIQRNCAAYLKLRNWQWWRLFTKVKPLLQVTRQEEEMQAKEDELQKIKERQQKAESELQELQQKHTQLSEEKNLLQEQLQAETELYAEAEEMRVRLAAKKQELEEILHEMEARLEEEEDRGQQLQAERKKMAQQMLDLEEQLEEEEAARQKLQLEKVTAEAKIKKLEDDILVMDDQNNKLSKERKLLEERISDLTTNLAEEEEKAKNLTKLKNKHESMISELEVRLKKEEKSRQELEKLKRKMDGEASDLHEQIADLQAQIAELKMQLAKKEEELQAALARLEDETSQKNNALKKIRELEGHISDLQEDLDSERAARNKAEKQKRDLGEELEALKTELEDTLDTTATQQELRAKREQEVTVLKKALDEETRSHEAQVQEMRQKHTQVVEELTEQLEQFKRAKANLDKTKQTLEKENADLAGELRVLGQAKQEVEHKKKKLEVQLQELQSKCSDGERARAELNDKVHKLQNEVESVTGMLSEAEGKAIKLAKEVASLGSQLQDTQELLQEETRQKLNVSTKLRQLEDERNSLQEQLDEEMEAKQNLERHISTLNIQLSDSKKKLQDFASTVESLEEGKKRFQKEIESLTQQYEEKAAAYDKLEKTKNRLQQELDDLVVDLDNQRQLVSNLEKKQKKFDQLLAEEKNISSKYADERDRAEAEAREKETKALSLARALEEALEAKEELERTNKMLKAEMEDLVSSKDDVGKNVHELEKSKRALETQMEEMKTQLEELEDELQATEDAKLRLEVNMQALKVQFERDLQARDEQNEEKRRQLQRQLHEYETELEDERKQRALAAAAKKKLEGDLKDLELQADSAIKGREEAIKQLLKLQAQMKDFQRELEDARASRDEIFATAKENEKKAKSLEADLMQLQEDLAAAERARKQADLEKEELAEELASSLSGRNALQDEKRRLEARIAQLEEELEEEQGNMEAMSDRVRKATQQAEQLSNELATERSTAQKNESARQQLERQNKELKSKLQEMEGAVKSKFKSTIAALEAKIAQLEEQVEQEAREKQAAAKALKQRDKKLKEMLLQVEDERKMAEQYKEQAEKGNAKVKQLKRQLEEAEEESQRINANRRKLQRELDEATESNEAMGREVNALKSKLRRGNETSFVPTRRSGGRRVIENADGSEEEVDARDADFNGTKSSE
Variant,effect of a mutation on the interaction [1],effect of a mutation on the interaction [2]
Y247H,increasing interaction strength,increasing interaction strength
E248K,increasing interaction strength,increasing interaction strength

# — IntAct's records for PubMed 31025394
